Here are results for three molecules from US9435807B2, “Use of leucyl tRNA synthetase” (Medicinal Bioconvergence Research Center, priority 2011, dated 2016).

For assay [1], the target named is T1, LRS-(1-1176) / RagD binding (Homo sapiens, UniProt Q9NQL2).
T1 construct: Purified GST-RagD was incubated with His-LRS-(1-1176) coated on a plate; made in house; host or cells: E. coli BL21(DE3) for His-LRS (pET 16a); E. coli BL21 for GST-RagD (pGEX4T3)
The assay is described as follows: ELISA for binding between LRS and RagD. To be noted: GST-RagD on plate coated with His-LRS-(1-1176), fragment added during incubation. Here is the method:
FIGS. 13a and 13b show ELISA assay results for measuring binding affinity between LRS and RagD.
In FIG. 13b, the comparison result of binding affinity for control (GST), RagD and RagD+LRS-(759-1176) on a 96 well plate coated with LRS-(1-1176) is shown.
First, each fragment of LRS was synthesized by PCR amplification using the cDNA of LRS as a template and a primer set (Table 1) specific for each fragment. The PCR amplification was performed under the following conditions: predenaturation of the template DNA at 95° C. for 2 min; and then 30 cycles, each consisting of 30 sec at 95° C., 30 sec at 56° C., and 3 min and 30 sec at 72° C.; followed by final extension at 72° C. for 10 min. Each of the PCR products was digested with NdeI and BamHI and ligated into a pET 16a vector (Novagen) digested with the same restriction enzymes. E. coli BL21(DE3) cells were transformed with the vector and cultured to induce the expression of peptides. Each peptide expressed as a His-tag fusion protein was purified by Ni-chelating agarose. […]
A fragment of RagD was synthesized by PCR amplification using the cDNA of […] as a template and a primer set (Table 1) specific for each fragment. […] Each peptide expressed as a GST-tag fusion protein was purified by GSH agarose. […]
For orientation: An ELISA detects its analyte on a solid surface through an enzyme-linked reagent.

Another assay deals with T2, RagD GTPase (Homo sapiens, UniProt Q9NQL2).
T2 construct: made in house; host or cells: LRS fragment: E. coli BL21(DE3), pET 16a
The assay is described as follows: In vitro GTPase assay. The assay is classed as biochemical. To be noted: LRS (759-1176 a.a) fragment incubated with RagD, 37° C. As to the method:
In FIG. 7a, the indicated amounts of Histagged LRS (759-1176 a.a) fragment were incubated with 0.15 pM RagD for 20 min at 37° C. The error bars represent mean S.D. (n=3).
In FIG. 7b, his-tagged LRS fragments (0.3 μM) were incubated with RagD for the indicated times. The error bars represent mean S.D. (n=3).
In FIG. 7d, the effects of LRS WT and mutants on GTP hydrolysis of RagD is shown. Purified LRS WT (759-1176 a.a) fragment or mutants (H844A, R845A) fragments were incubated with RagD for 20 min at 37° C. The error bars represent mean S.D. (n=3).
GTPase assays were conducted in assay buffer (20 mM piperazine-N,N9-bis(2-ethanesulfonic acid), 20 mM HEPES, 5 mM MgCl2, 125 mM NaCl, 5 mM KCl at pH 7.0, 0.5 mM GTP) containing 0.1% bovine serum albumin in a final volume of […] using GTPase assay kit (Innova Biosciences) according to manufacturer's instructions.

Where a chain is given by its changes, count along the chain named. Numbers in names are those of the source.

T2 sequence (Q9NQL2 whole entry, the tested form may be a part): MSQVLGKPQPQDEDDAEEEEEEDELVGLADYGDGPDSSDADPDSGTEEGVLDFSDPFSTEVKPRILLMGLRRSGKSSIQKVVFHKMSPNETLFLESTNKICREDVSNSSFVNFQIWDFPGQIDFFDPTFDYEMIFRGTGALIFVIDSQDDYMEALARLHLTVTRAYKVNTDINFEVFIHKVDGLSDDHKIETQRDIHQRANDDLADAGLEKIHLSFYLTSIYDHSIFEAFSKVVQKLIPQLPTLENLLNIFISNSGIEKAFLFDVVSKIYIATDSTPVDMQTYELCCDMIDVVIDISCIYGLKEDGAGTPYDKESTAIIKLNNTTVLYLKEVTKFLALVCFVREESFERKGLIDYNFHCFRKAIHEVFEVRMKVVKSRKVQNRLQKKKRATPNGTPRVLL
T1 sequence (Q9NQL2 whole entry): as the sequence (Q9NQL2 whole entry, the tested form may be a part) above

B1: His-LRS-(759-1176): His-tagged fragment of leucyl tRNA synthetase, residues 759-1176 (protein)
chain: MADAGILRLYTWVEWVKEMVANWDSLRSGPASTFNDRVFASELNAGIIKTDQNYEKMMFKEALKTGFFEFQAAKDKYRELAVEGMHRELVFRFIEVQTLLLAPFCPHLCEHIWTLLGKPDSIMNASWPVAGPVNEVLIHSSQYLMEVTHDLRLRLKNYMMPAKGKKTDKQPLQKPSHCTIYVAKNYPPWQHTTLSVLRKHFEANNGKLPDNKVIASELGSMPELKKYMKKVMPFVAMIKENLEKMGPRILDLQLEFDEKAVLMENIVYLTNSLELEHIEVKFASEAEDKIREDCCPGKPLNVFRIEPGVSVSLVNPQPSNGHFSTKIEIRQGDNCDSIIRRLMKMNRGIKDLSKVKLMRFDDPLLGPRRVPVLGKEYTEKTPISEHAVFNVDLMSKKIHLTENGIRVDIGDTIIYLVH
modifications: left off: small tags and cut ends
B1: the “binding between RagD and LRS-(1-1176)” value in assay [1] is given as “inhibited”; in assay [1] (listed as LRS-(759-1176)) it was “decreased the binding affinity”. The “GTP hydrolysis by RagD GTPase (GAP activity)” value (“GTP hydrolysis by RagD GTPase” for short) in the assay with RagD GTPase is “enhanced GTP hydrolysis by RagD GTPase in dose- and time-dependent manner”.

B2: H844A: LRS (759-1176 a.a) fragment with alanine mutation H844A in the putative GAP motif (protein, UniProt Q9P2J5 759-1176, looked up, variant H844A)
chain: B1 chain with H86A
Regarding B2, the “GTP hydrolysis by RagD GTPase” value with RagD GTPase is recorded as “lost their GAP activity”.

B3: R845A: LRS (759-1176 a.a) fragment with alanine mutation R845A in the putative GAP motif (protein, UniProt Q9P2J5 759-1176, looked up, variant R845A)
chain: B1 chain with R87A
For the molecule B3, in the assay with RagD GTPase, the “GTP hydrolysis by RagD GTPase” value is “lost their GAP activity”.
